According to PMC10046596, “Biophysical and Biochemical Characterization of the Binding of the MarR-like Transcriptional Regulator Saro_0803 to the nov1 Promotor and Its Inhibition by Resveratrol” (Biomolecules, 2023):

Assays:
Saro_0803 [1] = biological target: T1, Saro_0803 (Novosphingobium aromaticivorans, UniProt Q2GA75); experiment: ITC (also SPR, Kd […]; EMSA shows inhibition of nov1p^[…]bp binding)
T1 construct: His-tagged Saro_0803 (pET-30a(+)), full-length; homogeneous dimer in solution
T1 sequence (Q2GA75 1-157): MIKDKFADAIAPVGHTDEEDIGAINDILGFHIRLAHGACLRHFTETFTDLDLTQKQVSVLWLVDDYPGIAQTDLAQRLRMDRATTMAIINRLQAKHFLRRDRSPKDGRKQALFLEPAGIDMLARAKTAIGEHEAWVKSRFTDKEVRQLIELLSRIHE

[2] = biological target: the molecule itself; experiment: AUC; sedimentation velocity, protein ~1.0 mg/mL, 40,000 rpm for 2 h at 4 °C, c(s) analysis with Sedfit
Saro_0803 K55A = biological target: T2, Saro_0803 K55A (Novosphingobium aromaticivorans DSM …, UniProt Q2GA75 1-157, K55A); experiment: ITC; 5% DMSO; ITC: 50 mM Tris-HCl pH 8.0, 200 mM NaCl, 5% DMSO, 25 °C, 20 µM protein, 200 µM DNA; EMSA: 5.0 µM DNA (annealed in 50 mM Tris-HCl pH 8.0, 200 mM NaCl), 37 °C 30; conditions: protein: recombinant; tags: His-tag; chain copies: 2
T2 sequence: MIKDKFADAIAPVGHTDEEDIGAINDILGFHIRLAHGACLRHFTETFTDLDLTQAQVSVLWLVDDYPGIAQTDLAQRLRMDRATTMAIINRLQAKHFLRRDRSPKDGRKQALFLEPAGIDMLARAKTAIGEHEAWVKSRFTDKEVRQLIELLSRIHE

Saro_0803 F47A = biological target: T3, Saro_0803 F47A (Novosphingobium aromaticivorans DSM …, UniProt Q2GA75 1-157, F47A); experiment: ITC, EMSA; micromolar or submicromolar; ITC: 50 mM Tris-HCl pH 8.0, 200 mM NaCl, 5% DMSO, 25 °C, 20 µM protein, 200 µM DNA; EMSA: 5.0 µM DNA (annealed in 50 mM Tris-HCl pH 8.0, 200 mM NaCl), 37 °C 30; conditions: protein: recombinant; tags: His-tag; chain copies: 2
T3 sequence: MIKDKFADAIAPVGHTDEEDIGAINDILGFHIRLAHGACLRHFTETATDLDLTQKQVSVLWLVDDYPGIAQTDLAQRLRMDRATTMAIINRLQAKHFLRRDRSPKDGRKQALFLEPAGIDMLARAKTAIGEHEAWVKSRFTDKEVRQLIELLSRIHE

Saro_0803 W61A = biological target: T4, Saro_0803 W61A (Novosphingobium aromaticivorans DSM …, UniProt Q2GA75 1-157, W61A); experiment: as above; conditions: protein: recombinant; tags: His-tag; chain copies: 2
T4 sequence: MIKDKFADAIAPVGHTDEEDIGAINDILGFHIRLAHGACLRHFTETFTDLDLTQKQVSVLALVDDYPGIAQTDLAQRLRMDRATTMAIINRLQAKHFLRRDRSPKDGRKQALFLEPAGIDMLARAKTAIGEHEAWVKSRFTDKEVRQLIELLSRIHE

Saro_0803 F30A = biological target: T5, Saro_0803 F30A (Novosphingobium aromaticivorans DSM …, UniProt Q2GA75 1-157, F30A); experiment: as above; conditions: protein: recombinant; tags: His-tag; chain copies: 2
T5 sequence: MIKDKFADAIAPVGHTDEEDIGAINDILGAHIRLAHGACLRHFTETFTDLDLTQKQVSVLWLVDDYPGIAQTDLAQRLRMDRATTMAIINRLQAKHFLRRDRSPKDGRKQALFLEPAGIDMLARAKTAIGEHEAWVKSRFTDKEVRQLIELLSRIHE

Saro_0803 F43A = biological target: T6, Saro_0803 F43A (Novosphingobium aromaticivorans DSM …, UniProt Q2GA75 1-157, F43A); experiment: as above; conditions: protein: recombinant; tags: His-tag; chain copies: 2
T6 sequence: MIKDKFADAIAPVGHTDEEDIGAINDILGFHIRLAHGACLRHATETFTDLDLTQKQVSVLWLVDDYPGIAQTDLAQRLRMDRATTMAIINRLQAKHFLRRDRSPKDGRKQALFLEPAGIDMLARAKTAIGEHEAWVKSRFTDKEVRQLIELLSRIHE

Saro_0803 R108A = biological target: T7, Saro_0803 R108A (Novosphingobium aromaticivorans DSM …, UniProt Q2GA75 1-157, R108A); experiment: ITC; 5% DMSO; ITC: 50 mM Tris-HCl pH 8.0, 200 mM NaCl, 5% DMSO, 25 °C, 20 µM protein, 200 µM DNA; EMSA: 5.0 µM DNA (annealed in 50 mM Tris-HCl pH 8.0, 200 mM NaCl), 37 °C 30; conditions: protein: recombinant; tags: His-tag; chain copies: 2
T7 sequence: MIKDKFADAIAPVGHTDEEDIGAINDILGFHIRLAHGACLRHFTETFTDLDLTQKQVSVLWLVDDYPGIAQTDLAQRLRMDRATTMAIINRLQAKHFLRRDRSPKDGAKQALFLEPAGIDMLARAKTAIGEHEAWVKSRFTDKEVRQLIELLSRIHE

Saro_0803 A87R = biological target: T8, Saro_0803 A87R (Novosphingobium aromaticivorans DSM …, UniProt Q2GA75 1-157, A87R); experiment: as above; conditions: protein: recombinant; tags: His-tag; chain copies: 2
T8 sequence: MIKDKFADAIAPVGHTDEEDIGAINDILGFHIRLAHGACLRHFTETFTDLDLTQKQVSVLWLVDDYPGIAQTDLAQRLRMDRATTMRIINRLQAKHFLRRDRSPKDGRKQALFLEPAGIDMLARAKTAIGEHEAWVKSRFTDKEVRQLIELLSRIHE

Saro_0803 [3] = biological target: T9, Saro_0803 (Novosphingobium aromaticivorans DSM …, UniProt Q2GA75 1-157); experiment: as above; conditions: protein: recombinant; tags: His-tag (pET-30a(+), NdeI/XhoI); chain copies: 2
T9 sequence: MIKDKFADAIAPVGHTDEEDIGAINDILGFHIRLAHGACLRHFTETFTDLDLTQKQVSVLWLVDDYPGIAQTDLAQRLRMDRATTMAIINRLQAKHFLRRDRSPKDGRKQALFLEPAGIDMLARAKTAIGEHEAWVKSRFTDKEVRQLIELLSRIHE

Saro_0803 R108D = biological target: T10, Saro_0803 R108D (Novosphingobium aromaticivorans DSM …, UniProt Q2GA75 1-157, R108D); experiment: as above; conditions: protein: recombinant; tags: His-tag; chain copies: 2
T10 sequence: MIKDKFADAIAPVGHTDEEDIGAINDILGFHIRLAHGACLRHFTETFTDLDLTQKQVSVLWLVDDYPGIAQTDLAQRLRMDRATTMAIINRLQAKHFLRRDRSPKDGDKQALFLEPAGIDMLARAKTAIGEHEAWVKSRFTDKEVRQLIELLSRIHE

Saro_0803 K109E = biological target: T11, Saro_0803 K109E (Novosphingobium aromaticivorans DSM …, UniProt Q2GA75 1-157, K109E); experiment: as above; conditions: protein: recombinant; tags: His-tag; chain copies: 2
T11 sequence: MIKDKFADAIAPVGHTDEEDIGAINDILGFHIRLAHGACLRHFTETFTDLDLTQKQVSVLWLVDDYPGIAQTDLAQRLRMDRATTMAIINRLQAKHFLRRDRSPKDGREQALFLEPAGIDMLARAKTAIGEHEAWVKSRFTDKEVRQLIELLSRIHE

Saro_0803 K109A = biological target: T12, Saro_0803 K109A (Novosphingobium aromaticivorans DSM …, UniProt Q2GA75 1-157, K109A); experiment: as above; conditions: protein: recombinant; tags: His-tag; chain copies: 2
T12 sequence: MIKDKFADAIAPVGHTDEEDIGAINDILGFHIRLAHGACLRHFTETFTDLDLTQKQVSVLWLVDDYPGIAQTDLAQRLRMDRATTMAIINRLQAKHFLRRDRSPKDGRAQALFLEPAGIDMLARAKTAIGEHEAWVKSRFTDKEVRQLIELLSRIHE

Saro_0803 [4] = biological target: T9, Saro_0803; experiment: EMSA; 10 µM protein; ITC: 50 mM Tris-HCl pH 8.0, 200 mM NaCl, 5% DMSO, 25 °C, 20 µM protein, 200 µM DNA; EMSA: 5.0 µM DNA (annealed in 50 mM Tris-HCl pH 8.0, 200 mM NaCl), 37 °C 30; conditions: protein: recombinant; tags: His-tag (pET-30a(+), NdeI/XhoI); chain copies: 2
Saro_0803 [5] = biological target: T9, Saro_0803; experiment: EMSA; ITC: 50 mM Tris-HCl pH 8.0, 200 mM NaCl, 5% DMSO, 25 °C, 20 µM protein, 200 µM DNA; EMSA: 5.0 µM DNA (annealed in 50 mM Tris-HCl pH 8.0, 200 mM NaCl), 37 °C 30; conditions: protein: recombinant; tags: His-tag (pET-30a(+), NdeI/XhoI); chain copies: 2

Oc1ccc(/C=C/c2cc(O)cc(O)c2)cc1 [resveratrol]
Kd (Saro_0803 [1]): ~35.7 µM

B1: Saro_0803, MarR-like transcriptional regulator of Novosphingobium aromaticivorans DSM 12444 (natural protein, UniProt Q2GA75 1-157, looked up)
chain: MIKDKFADAIAPVGHTDEEDIGAINDILGFHIRLAHGACLRHFTETFTDLDLTQKQVSVLWLVDDYPGIAQTDLAQRLRMDRATTMAIINRLQAKHFLRRDRSPKDGRKQALFLEPAGIDMLARAKTAIGEHEAWVKSRFTDKEVRQLIELLSRIHE
notes: Transcriptional regulator Saro_0803 (MarR family), encoded by gene saro_0803 of Novosphingobium aromaticivorans DSM 12444; theoretical MW of the tagged protein around 18.75 kDa; called full-length in contrast to the truncation 21-157; Cloned into pET-30a(+) by Nde I/Xho I; No removal of the tag is described; also called polyhistidine-tagged Saro_0803; His-tagged Saro_0803; source: E. coli …
stoichiometry N [2]: 2

B2: nov1p22bp (dsDNA)
DNA 1: TAATTGTTAGCAATACATACAA
DNA 2: TTGTATGTATTGCTAACAATTA
binding signal (Saro_0803 K55A): ~3 fold decrease in affinity vs WT | binding result (Saro_0803 F47A): binds | binding result (Saro_0803 W61A): binds | binding result (Saro_0803 F30A): binds | binding result (Saro_0803 F43A): binds | binding result (Saro_0803 R108A): no binding | Kd (Saro_0803 A87R): ~1.16 µM | Kd (Saro_0803 [3]): ~3.57 µM | binding result (Saro_0803 R108D): no binding | binding result (Saro_0803 K109E): no binding | binding result (Saro_0803 K109A): no binding

B3: nov1p58bp with 15 bp 3' deletion (43 bp) (dsDNA)
DNA 1: CCAACGAATGCGCTTGTCTAATTGTTAGCAATACATACAATAT
DNA 2: ATATTGTATGTATTGCTAACAATTAGACAAGCGCATTCGTTGG
binding result (Saro_0803 [4]): no binding

B4: 18-bp upstream fragment (dsDNA)
DNA 1: CCAACGAATGCGCTTGTC
DNA 2: GACAAGCGCATTCGTTGG
binding result (Saro_0803 [5]): no binding

B5: downstream neighboring fragment (dsDNA)
DNA 1: TATTGCAAGGAGGATGCC
DNA 2: GGCATCCTCCTTGCAATA
binding result (Saro_0803 [5]): no binding
